According to US6593108B1 (priority 1999, dated 2003):
Values joined by “and” are separate entries in the source; they are usually repeats but may differ in a detail not shown here. Identical values can stand only once. One block for each molecule: values may come before it. Where a SMILES comes first, the peptide text is derived from it. Bridges are numbered along the chain shown (N, C = ends). Where no end group is shown, it is not given here.

What was measured:
mock transfected cells = assay: [125I]-MCH binding to mock transfected HEK293T cells; set-up: species or system human
[1] = biological target: HG67 (melanin-concentrating hormone receptor 2) (human) (UniProt Q969V1); assay: SPA, COS or CHO MCH-R2 membranes, nonspecific defined with 500 nM unlabeled MCH
MCH-R1 [2] = biological target: T1, MCH-R1 (Homo sapiens, UniProt Q99705); assay: SPA, CHO/MCH-R1 membranes, nonspecific defined with 500 nM unlabeled MCH
MCH-R1 [3] = biological target: T1, MCH-R1; assay: SPA, displacement of [125I]Phe13Tyr19-MCH from MCH-R1 membranes
[4] = biological target: HG67 (melanin-concentrating hormone receptor 2) (human) (UniProt Q969V1); assay: SPA, displacement of [125I]Phe13Tyr19-MCH from MCH-R2 membranes
MCH-R1 [5] = biological target: T1, MCH-R1; assay: cell-based or functional assay
[6] = biological target: HG67 (melanin-concentrating hormone receptor 2) (human) (UniProt Q969V1); assay: cell-based or functional assay
HG67 = biological target: T2, HG67 (Homo sapiens, UniProt Q969V1); assay: Intracellular calcium ([Ca2+]i) measurement with fura-2 in HEK293T cells transiently expressing HG67; format: cell-based; conditions: HEK293T cells transiently expressing HG67, fura-2; read-out: EC50 of increase in intracellular calcium levels
T2 construct: expressed in transfected cells; host or cells: HEK-293T, transient
Excerpt: (§1) The entire coding sequence of human HG67 was cloned into BamHI -NotI site of pEF1/V5-HisB plasmid vector (Invitrogen, Carlsbad, Calif.). The resultant construct was transfected into HEK-293T cells using Effectene (Qiagen, Hilden, Germany) or LipofectAmine PLUS (Life Technologies) according to the manufacture's instructions. Human embryonic kidney cells constitutively expressing SV40 large T antigen (HEK-293T) were maintained in D-MEM/F-12 medium (Life Technologies, Rockville, Md.) supplemented with 10% fetal bovine serum, 100 units/ml penicillin-G and 100 μg/ml streptomycin at 37° C. with 5% CO2 in a humidified atmosphere.
(§2) The intracellular calcium ion concentration ([Ca^2+]i) was measured fluorometrically using a Ca^2+-sensitive fluorescent dye, fura-2. HEK293T cells transiently transfected with pEF1/V5-HisB plasmid vector harboring HG67 cDNA were harvested by phosphate-buffered saline containing 2 mM EDTA 48 hours after transfection, and washed once with the assay buffer (Hanks' balanced salt solution, 10 mM HEPES, 0.1% BSA, pH 7.4). The cells were suspended with the buffer containing 2 μM fura-2 acetoxymethylester (Dojin, Kumamoto, Japan) into the cell density of 1.0×10^7 cells/ml and incubated at 37° C. for 60 minutes with gently shaking. The fura-2-loaded cells were washed twice with the buffer and re-suspended with the buffer to 1.0×10^6 cells/ml. […]

non-transfected cells = assay: Intracellular calcium ([Ca2+]i) measurement with fura-2 in non-transfected cells; format: cell-based, human; conditions: data not shown
Excerpt: as §1, §2

MCH-R1 [7] = biological target: T1, MCH-R1; assay: Pertussis toxin effect on MCH-R1 signaling; format: cell-based; conditions: dose dependent
Excerpt: MCH-R2 appears to activate Gαq. […] Intracellular calcium mobilization through MCH-R2 was not affected by different concentrations of pertussis toxin (PTX), while MCH-R1 signaling was reduced in a dose dependent manner to about 50%. The results of incomplete PTX-inhibition of MCH-R1 signaling is in contrast to Lembo, et al., 1999. […] (Tadayyon, et al., 2000. 275(2), 709-712).

MCH-R1 [8] = biological target: T1, MCH-R1; conditions: Lembo, et al., 1999; cited from earlier work
[9] = biological target: T3, HG67 (melanin-concentrating hormone receptor 2) (human, UniProt Q969V1 1-340); assay: cell-based or functional assay
[10] = biological target: T3, HG67 (melanin-concentrating hormone …); assay: cell-based or functional assay; remark: listed apart in the source
[11] = biological target: T3, HG67 (melanin-concentrating hormone …); assay: SPA, displacement of [125I]Phe13Tyr19-MCH from MCH-R2 membranes
Protocol: (§3) SPA was carried out using wheat-germ agglutinin-polyvinyltoluene beads (Amersham Corp., Arlington Heights, Ill.), in 96-well OptiPlates (Packard, Meriden, Conn.). Each well contained 0.25 mg of SPA beads, 1–10 μg of membrane protein, and 200 μl of binding buffer.
(§4) After equilibrating at room temperature for 3 hours, the plates were read in a TopCount (Packard, Meriden, Conn.). IC$50$ calculations were performed using Prism 3.0 (GraphPad Software, San Diego, Calif.).

MCH-R1 [12] = biological target: T4, MCH-R1 (Homo sapiens (Human), UniProt Q99705 1-353); assay: SPA, displacement of [125I]Phe13Tyr19-MCH from MCH-R1 membranes
T4 construct: also called MCH-1R; CHO/MCH-R1
Protocol: as §3, §4

MCH-R1 [13] = biological target: T4, MCH-R1; assay: cell-based or functional assay

Sequence of HG67 (melanin-concentrating hormone receptor 2) (human) (Q969V1 whole entry): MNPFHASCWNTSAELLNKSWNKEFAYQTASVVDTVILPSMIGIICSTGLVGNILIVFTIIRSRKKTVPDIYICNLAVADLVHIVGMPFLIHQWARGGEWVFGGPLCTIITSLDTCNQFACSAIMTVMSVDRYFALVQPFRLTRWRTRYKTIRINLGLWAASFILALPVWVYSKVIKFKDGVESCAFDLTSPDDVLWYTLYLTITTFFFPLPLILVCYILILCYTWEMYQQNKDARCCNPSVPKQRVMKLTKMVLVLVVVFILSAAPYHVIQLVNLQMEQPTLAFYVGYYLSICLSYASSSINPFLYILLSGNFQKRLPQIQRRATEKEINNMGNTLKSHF
T3 sequence (Q969V1 whole entry): as above
T4 sequence (Q99705 whole entry, form in doubt): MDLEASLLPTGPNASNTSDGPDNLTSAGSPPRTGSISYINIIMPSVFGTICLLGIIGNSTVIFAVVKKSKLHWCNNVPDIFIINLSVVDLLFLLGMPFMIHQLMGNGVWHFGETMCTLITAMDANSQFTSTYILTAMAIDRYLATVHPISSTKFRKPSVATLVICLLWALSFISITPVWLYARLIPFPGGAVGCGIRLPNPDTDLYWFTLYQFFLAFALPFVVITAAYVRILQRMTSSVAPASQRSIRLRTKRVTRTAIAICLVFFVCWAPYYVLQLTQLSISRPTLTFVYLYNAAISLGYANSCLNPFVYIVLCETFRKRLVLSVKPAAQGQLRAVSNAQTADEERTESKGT
T2 sequence (Q969V1 whole entry): as the sequence (Q969V1 whole entry) above

Molecule: [^125I]-MCH: radioiodinated MCH, NEN Life Science Products
Specific binding to mock transfected cells (mock transfected cells; in words): any specific binding was not observed
Nonspecific binding (1 μM MCH) (mock transfected cells; mock transfected HEK293T cells, [125I]-MCH 100 pM plus 1 μM cold MCH, two values per cell): 352.2 Cpm and 326.6 Cpm
Total binding (DMSO) (mock transfected cells; mock transfected HEK293T cells, [125I]-MCH 100 pM, two values per cell): 516.4 Cpm and 392.5 Cpm

specific binding window [1]: 3 x
specific binding window (MCH-R1 [2]): 6 x
Molecule: [125I]Phe^13Tyr^19-MCH (from UniProt P20382 147-165) (peptide)

IC50 (MCH-R1 [3]): 0.2 nM
IC50 [4]: 437 nM
Function (EC50) (MCH-R1 [5]): 119 nM
Function (EC50) [6]: 90.5 nM
Molecule: Salmon MCH (peptide)

EC50 (HG67): 0.078 nM
Molecule: CSCC[C@@H]1NC(=O)[C@@H](NC(=O)[C@H](CCCNC(=N)N)NC(=O)[C@H](CC(C)C)NC(=O)[C@H](CCSC)NC(=O)[C@H](CC(=O)O)NC(=O)[C@H](Cc2ccccc2)NC(=O)[C@@H](N)CC(=O)O)CSSC[C@@H](C(=O)N[C@@H](Cc2c[nH]c3ccccc23)C(=O)N[C@@H](CCC(N)=O)C(=O)N[C@@H](CC(C)C)C(=O)O)NC(=O)[C@@H]2CCCN2C(=O)[C@H](CCCNC(=N)N)NC(=O)[C@H](Cc2ccccc2)NC(=O)[C@H](C(C)C)NC(=O)[C@H](CCCNC(=N)N)NC(=O)CNC(=O)[C@H](CC(C)C)NC1=O [[Phe^13, Leu^19]-MCH] (H-DFDMLRCMLGRVFRPCWQL-OH; disulfide 7-16 (inferred); N-terminus and C-terminus assumed)
[Ca2+]i increase in the non-transfected cells (non-transfected cells): failed to induce detectable [Ca^2+]i increase

Molecule: Melanin-concentrating hormone [MCH]
[Ca2+]i increase in the non-transfected cells (non-transfected cells): failed to induce detectable [Ca^2+]i increase

Molecule: pertussis toxin
MCH-R1 signaling remaining after PTX (reduced to) (MCH-R1 [7]): about 50%
PTX inhibition of MCH-1R signaling (MCH-R1 [8]): complete PTX inhibition

increase in intracellular calcium levels (fura-2), EC50 [6]: 0.078 nM
Molecule: [Phe^13, Leu^19]-MCH (from UniProt P20382 147-165) (peptide)

IP turnover, EC50 [9]: 2.8 nM
aequorin assay in HEK293/aeq17/Galpha15 cells, EC50 [9]: 26 nM
increase in intracellular calcium levels (fura-2), EC50 [9]: 0.02 nM
Function (EC50) [10]: 44.1 nM
IC50 [11]: 1.5 nM
B1: human melanin-concentrating hormone (MCH) (peptide, UniProt P20382 147-165, looked up)
peptide: DFDMLRCMLGRVYRPCWQV
modifications: ends and bridges not checked; cysteine pairing not given here
notes: mature; Both are treated as one molecule; the mature 19-mer is its C-terminal part; also called Human MCH; cold MCH

IC50 (MCH-R1 [12]): 0.3 nM
Function (EC50) [10]: 65.5 nM
Function (EC50) (MCH-R1 [13]): 83.1 nM
IC50 [11]: 0.8 nM
Molecule: DFDMLRCMLGRVFRPCWQY [(Phe^13Tyr^19)-MCH]
